# Target: I-E^k (mouse MHC class II molecule, α- and β-subunits, six-histidine-tagged) (mouse)
# Test: peptide exchange induced by ultraviolet irradiation
substance,measurement,value
MCC peptide labeled with indocarbocyanine (Cy3),percent of Lys99ANP–I-E^k converted into Cy3-labeled MCC–I-E^k,30%
